The DeepSol protein solubility set

Experiment: soluble on expression in E. coli; label from the status in PepcDB or PDB records

Soluble on expression in E. coli, not soluble:
MGSDKIHHHHHHMKVQYSFEREFEELMSDLLSKYGYEMFQMDGLGDQLDVVKFTEDFVRRGIIESTIDANANVRVTNISTYFIEISKPHTYLYSLYRIWQKMKEMFGKGVADEFVEAQINGAVYLHDRHHAALMPYCFAYTLKPIVEKGLPFIKTIKSEPAKHLSTFIQHVIQFVMFASNQSSGAVGLPDFFVWMWYFVKKDLKEGIIPRDKLDWYIEQHFQILTYSLNQPIRTTQSPYTNFTYLDRNYIKAIFEGERYPDGSLITDHVEDIIALQKHYWEWVSRERERQMFTFPVLTASLLYKDGKFLDEDSARFINKINMKWQDTNWYISDSIDAVASCCRLTSSTQTLKKFSLSSEEEEKLKGRMNSIGGSDLNIGSFKVITVNLPRIALESGGDREKYLQILRHRVQLIKKALAAVREIIKERISEGLLPLYENGLMLLNRQYGTIGVTGVWESASIMGLTTEDIDGLKYTEEGEVFVDNVLDTIREEAEKGYHEYGFTFNIEQVPAEKAAVTLAQKDRFLFGEKQPFEIYSNQWVPLMANTDVLNRIRYSGKWDKKVSGGAILHINLGESFKTEEESFNMVKMIADMGVMYFAFNTKISVCEDGHAFYGERCPVCGKAKVDEYMRIVGYLVPVSAFNKERREIEYPRRQFYDSLTIRR, MGSDKIHHHHHHMKVSTISIDLAKNVFQLLGMDKHAKQVFSKRLNRTQLSEFMSQQPVCDVVFEACYSSHYWGRKFLAMGHNVKLIPAQHVTPFVRGSKNDKNDAMAIYEANFRPNIRFVPIKTEAQQEILMLHRVRERLVKQRTACTNQIRGVLVDFGICFPQGHSAFERAMWDIINDESQRPIIKLMANDFWDEYQTVSTRLDRINRLIKQLVEQDPNGKILLSIPGVGPIIASAFAAAIGAGQAFNSAKELAVWLGLTPQQFASGNKSINGSITKRGDGYLRKQLIHGARTVVSHASKKNDDLNQWITQLRNRKSICTTVVATAHRLARLMWILLHKQVPYAPQYGAYQGISHEAN, MGSDKIHHHHHHMKVVAVGGGTGLSTLLKGLKNIDSFEITAVVSVTDEGGSSGKLRKELNVPPPGDVRNNIVALAKDEDLLAKLMSYRFSEGSFKGHSLGNLIIAALTKIEGSFSEAIRILERVLAIKGRVLPVSEDHARLVARFEDGEEVIGETNIVRKGGKIVEVRLDRPIDALPEVLEAIERADIIIFGPGSLYTSIITNVLVNGVKDAIKKSKAKKIYVCNLMTQPGETTGYRVSDHVKELERYLEQSVDFVLVNTRKPSEEVLERYRKEGSDFVEIDAENIQNTILAEPFLVEIVDPSDGQRKIRHDSVKLADVIERISRW, MGSDKIHHHHHHMKYLPLGSTGLTVSECGFGCIPIIRLPQDEAVRVLRHAFDRGITFFDTANAYRDSEEKMGIAFAGIRHKLVIATKSLLRSAEGVTGHVENSLRKLGTDYLDLYQLHQIAQEKDWAEVTGPSGALEAAMAAKAAGKVRHVGVTSHNLEMALKLVRTGLFDTIQFPFNLIEEGAKDELLGAARDAGMAFICMKPFGGGVIDNAAVAFTYLRSHDGIFPIPGFESCAQVDEVLSFYERDNVVTEQDLAIMEQYRRELGKRFCRRCEYCQPCPQGVMITPAMGYPIVASRMSPAVAAEFCSKAMETVPLCTECGACIARCPYELPISDILKANYAMYRGHVAGSQGGFAGGKSS, MGSDKIHHHHHHMKYNPHKYQTYATNFILEHPIAAVFLEMGLGKSVITLTAIFDLCLDSFEIGKVLVIAPLRVARDTWPAEINKWEHLKGLEFSVAIGTKQERLAALRKPASVYLINRENVDWLVNKSGIPFDYDMVVIDELSSFKSYGAKRFKSLLKVRPRAKRIVGLTGTPSSNGLMDLWAEFRILDMGKRLGRYITHYRNSFFTPDKRNQQIVFSYKPLPGAEDAIYQLISDITISMESVDFLKMPECMINEVPVYLNDKEQSVYDRFREEMVLEFADEEIDAMNAAVLSGKLLQMANGAIYDDDKNTHIIHDRKLDALEDLIEGANGKPVLIAYWYNHDLERIKAKFNVREIKTSKDIKDWNNGDISVAVIHPASAGHGLNLQSGGSTLIWFGLTWSLELYQQTNARLWRQGQNETVVIHHIITKGTIDEDVMNALRRKEKTQSDLINAVKANLGKARDAV, MGSDKIHHHHHHMLAALKKYLLVPKLMRLSAGAPRDHHIAWDRFWSNVKTTGASGDVLWDSGSDHEMQGYVDRLRLHLDPGLPIVDIGCGNGSFTRQLAGHFPHAVGVDVSAHAVRRARAETAGLANISYAVADMTASGAGSGLLEELAVLDTGGQAGGGANVFIRGVLHVLGERDQHALAENARAITRANGRVFLAETNFRGNAVDYVTHLGATLRSIPAPLEGAIRGLPMPGRFGPKERSLAFPASRWELIEEGPTTIETMPLSNPARSDLIPGYFAVLEGRN, MGSDKIHHHHHHMLCSGYLGHDMEDDCDIIIIGAGIAGTACALRCARAGLSVLLLERAEIPGSKNLSGGRLYTHALAELLPQFHLTAPLERRITHESLSLLTPDGVTTFSSLQPGGESWSVLRARFDPWLVAEAEKEGVECIPGATVDALYEENGRVCGVICGDDILRARYVVLAEGANSVLAERHGLVTRPAGEAMALGIKEVLSLETSAIEERFHLENNEGAALLFSGRICDDLPGGAFLYTNQQTLSLGIVCPLSSLTQSRVPASELLTRFKAHPAVRPLIKNTESLEYGAHLVPEGGLHSMPVQYAGNGWLLVGDALRSCVNTGISVRGMDMALTGAQAAAQTLISACQHREPQNLFPLYHHNVERSLLWDVLQRYQHVPALLQRPGWYRTWPALMQDISRDLWDQGDKPVPPLRQLFWHHLRRHGLWHLAGDVIRSLRCL, MGSDKIHHHHHHMLDQNQTPLIDGIKACIARPHAAFYTPGHKRGRGIAQPLADLLGEAVFGADLTELANLDNLSAPQGVIQEAQRLAAAAFGAAQTWFLVNGSTCGVEAAIMATCRPGDKIILPRNVHSSAIAGLILSGAIPIFIHPEYDQVLDIAHSMTPEAVKAALQQHPDAKAVLAVYPTYYGVCGDLEAIAQITHQYNIPLLVDEAHGAHFTFHPELPTPALAAGADLTVQSIHKVLGAMTQASMLHIQGDRINAVRVSQALQLLQSTSPSYVLLASLDAARQQMALCGKQLMSRTLQLANEARERISQIPGLSVLQPPTMTPSSGFTTLDKTRLTITVSGLGLTGFAAEEILDEQLGVTAEFATFKHLTFIISLGNTTADIEQLVQGFTTLAETTPPAKALVNPRVNSNLEYFSEISPRDAFFADSETLSIEQARDRICAEIICPYPPGIPVIMPGEVITKPAIEYLQHIQSSGGFITGCADTSLSTLKVLVIGH, MGSDKIHHHHHHMLEHGGNLHVASQQYGIAREYWLDLSTGINPQGYPVPEIPASAWHRLPEADPPLERIAASYYGAQRLLVTAGSQAAIQALPRLRQPCRVTVLGPMYAEHAHAWRQQGHQVSEIDYLPSAAMLAETDVLLVCNPNNPTARLLAPSTLLEWHQVLSEHDGWLVVDEAFMDSTPEHSLAAYSHHSGLIILRSLGKFFGLAGARVGFVLAETPLLTRMADLLGPWAVTGPSSIVAQAALADHAWQQHHRAKLLAESRQLADMLRQAGLPARKGCALFQWLKLEHAERLHVQLARQGVWTRHFPALRGVRIGLPSADGWQKLAVALKELQLQDLSD, MGSDKIHHHHHHMLGINRKLEQLESDGTIIRVGLVGAGQMGRGMVSQIESMKGMRVVVTADIVLENVKLAYERAGVPKDEVIETDEISKAADAIQAGKVVATGDAELVTALSEVDVVVDATGIPNIGAKIAWDAILNKKHIVMLNVEADVTVGPLLKQMADACGVVYTGSAGDEPGAVMELYDFADALGFEVVALGKGKNNPLNVEANPQTAAEEAKRKGASPKMLASFQDGTKTMVEMTAVANATGFLPDKPGMNGFVGTVEELPAIFRRKEEGGQVENERIVEYINGVAPGVFAIVKSDKEEVNHEMTYLSMGEGPNYVLYRPYHLTSLETPISIARAHLYHEATIAPWQGLQAETVAVAKKDLAAGEFLDSIGGFTVYGTILTVTDAKEKGALPIGLVDAHVQVKRPIKKGEIITYDDVEQKKESTIWRLRRIQDETLVGKRELEAKV, MGSDKIHHHHHHMLKGIPHDSPLYEVDEDRGIEYRNCDAIVGFFTIKGDVSDLLPEGLKAYSKPAQGGIWISHYSFSTVGEYHEYLTVIQVEDEQGDMGYYIPYIYVTNDSALAAGRELAGAPKKLANIGLVKELDVVMGYLERPTGKRLVTFVMKPNTRALGGMIDFVLPKPTYLYSVRHLPPIKGKGGVTQLVKWYADIDFHVDPKGERAIFMGPGNITYDSPSVIDPVHKVEIDTLMTALYFQFDMKLGFVDILREY, MGSDKIHHHHHHMLKIELLESFIAVAECGNLSKAADKICRTQSTLSLQVKKLEESVGQTLLIRDNKGVTLTESGETLLNYAYKMMQLNSQAIDELKDCQNREVIRLGVPTDFIKCYLSSCLLEFIREFTSIELVIDTDVSGNLYKRLHQGEFDVIVATHWQVPTNGELLFTRRFKWVSAVEGNAHKRKTIPMGLYPENCPIRAQVFANHRLSMRPINVLLSTPSPQALCMAVENDLVIAPIAEFRITDQMQVLDPIEHGLPILPMFNESLYLNPDTQTYATLQLINLIKANVEHKGYQLD, MGSDKIHHHHHHMLKQKTLKDSFSLSGKGLHTGLDLTVTFNPAPDNHGYKIQRIDLEGQPTIDAVADNVTETTRGTVLSKNGVKVSTVEHGMAALYALGIDNCLIQVNGPEFPILDGSAQYYVQEIERVGTEEQSAVKDFYIIKSKIEFRDESTGSSIIVLPDENFSLNVLVSYDSTIIPNQFATLEDMHNFKDEVAASRTFVFVREIEPLLSAGLIKGGDLDNAIVIYERKMSQESYDKLADVMGVPHMDADQLGYINHKPLVWPNECARHKLLDVIGDLALIGKPIKGRIIATRPGHTINNKFARQMRKEIRLHEIQAPTYDCNREPVMDVNRIRELLPHRYPFQLVDKVIEMGASYIVGIKNITANEPFFQGHFPQEPVMPGVLQIEAMAQVGGLLVLNSVDEPERYSTYFMKIDGVKFRQKVVPGDTLLFRVELLAPIRRGISTMKGYAFVGEKVVCEAEFMAQIVKNK, MGSDKIHHHHHHMLLHSAWPRLLCPSPKAKHLKDPAMFELDHDLAQDIVDRAMAILPCNVNVMDSQGLILGSGEPERINTRHEGAQLVLANGRIVELDTDAAKCLKGVQPGVNLPLMLDGRLMGVLGLTGDPQQVRTYGELVRMTAEMLLAQRNLQADQQWRRQRCDDLLALLLGGSGNSPRLLDEARQLGLKPQLPRIPCLFEITSGPPAEALAAWLMSRYPDSWCVSPARQSLLWCRPAGVALDELRLLERLQRHGWDIERLALGSAAQSLEQLRRGYRRVRDLLAYGREVLPSERLLSLQRYRLPALLWRHRNDDALDELLEPLQRIRAKDSSGQLLATLRAWCAHDGQSQSCADALGIHRNSLRYRLERIAELGEVDPLRLEGMLSLYLGLQLLPTD, MGSDKIHHHHHHMLLTIDDVLTQEELAIARSMLARSAWVSGLVTAGTQAAQVKNNQQVQENDPQIVNLRRLVLGALNRNALFFTATLPEKIVPPFFNRYSGETNHYGFHVDNAMRLLPDGSGYVRTDVSATLFLSDPQEYDGGELVINDTFGQHGVKLQAGSMVIYPSSSIHQVTPVTRGERLACFMFIQSMVRNPDQRRLLYEMDMALLQLRQNIGETPAVVSLTGTYHNLLRQWADS

Soluble on expression in E. coli, soluble:
MGSDKIHHHHHHMKVVTFGEIMLRLSPPDHKRIFQTDSFDVTYGGAEANVAAFLAQMGLDAYFVTKLPNNPLGDAAAGHLRKFGVKTDYIARGGNRIGIYFLEIGASQRPSKVVYDRAHSAISEAKREDFDWEKILDGARWFHFSGITPPLGKELPLILEDALKVANEKGVTVSCDLNYRARLWTKEEAQKVMIPFMEYVDVLIANEEDIEKVLGISVEGLDLKTGKLNREAYAKIAEEVTRKYNFKTVGITLRESISATVNYWSVMVFENGQPHFSNRYEIHIVDRVGAGDSFAGALIYGSLMGFDSQKKAEFAAAASCLKHTIPGDFVVLSIEEIEKLASGATSGRVER
